Measurements published in patent US20220273713A1, “METHOD OF INHIBITING OR ACTIVATING GAMMA DELTA T CELLS” (The University of Melbourne, priority 2019, published 2022).
Several values for one entry are separate records, joined by “and”; a condition that tells them apart may be missing. Equal values may be shown once. Entries after “also recorded” stand apart in the source; their conditions may differ. Values belong to the molecule of their own block, whether it stands above or below them.

Legend:
[1] = system: Vγ9Vδ2 cells; assay: Luminex (Vγ9Vδ2): cytokine/chemokine secretion by pre-expanded Vγ9Vδ2 cells; format: cell-based, human; details: for GMCSF / ICAM-1 / IFNγ / IL-4 / IL-8 / IL-13 / IL-17A / MIP-1a / MIP-1b / TNFα / sE-selectin / sP-Selectin: 16 hrs, antibodies 10 μg/ml, Zoledronic acid 4 μM, HMBPP 0.5 ng/ml, duplicates, 0 set to 0.1;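 for all read-outs here: Vγ9Vδ2 cells purified from PBMC, activated 48 h with CD3 and CD28 plus IL-2, expanded 14 days in IL-2, then thawed and rested overnight in IL-2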
Procedure: Briefly, Vγ9Vδ2 cells were isolated from 1 healthy donor (Red Cross Australia) and 1 cancer patient derived PBMC using TCRγ/δ+ T Cell Isolation Kit (Miltenyi). Cells were stimulated for 48 hours in TCRPMI supplemented with 100u/ml IL-2, CD3 (10 μg/ml) and CD28 (1 μg/ml). Cells were washed and grown for 14 days in TCRPMI supplemented with 100u/ml IL-2 at 37 degrees C. and 5% CO2, and then frozen down. […] Vγ9Vδ2 were defrosted and rested overnight in TCRPMI supplemented with 50u/ml IL-2 at 37 degrees C. and 5% CO2. […] All samples were run with appropriate controls and standards.

[2] = molecular target: G115 Vγ9Vδ2+ γδTCR, wild type, on cells; assay: flow cytometry, tetramer-PE versus anti-CD3ε-APC on Jurkat G115 Vγ9Vδ2+ γδTCR cells
[3] = system: in vitro pre-expanded CD3+Vδ2+ γδ T cells; assay: HMBPP or anti-CD3/anti-CD28 activation of purified in vitro-expanded Vδ2+ T cells ± neutralizing anti-BTN2A1 mAb; format: cell-based, human; details: HMBPP 0.5 ng/ml, 10 μg/ml neutralizing anti-BTN2A1 mAb, no APCs
Procedure: CD25 expression was determined by flow cytometry, and IFN-γ concentration was determined by cytometric bead array (BD Bioscience) as per manufacturer instructions.

[4] = system: γδ T cells; assay: Identification of BTN2A1 agonistic antibodies: CD25 and interferon γ of expanded γδ T cells; format: cell-based, human; details: 10 μg/ml antibody overnight, vs isotype control BM4
Procedure: In some experiments γδ T cells were enriched by MACS using PE-Cy7-conjugated anti-γδTCR followed by anti-phycoerythrin-mediated magnetic bead purification (Miltenyi Biotec). After enrichment CD3+Vδ2+ γδ T cells were further purified by sorting using an Aria III (BD). Enriched γδ T cells were stimulated in vitro for 48 h with plate-bound anti-CD3ε (OKT3, 10 ug/ml, Bio-X-Cell), soluble anti-CD28 (CD28.2, 1 ug/ml, BD Pharmingen), phytohemagglutinin (0.5 μg/ml, Sigma), IL-15 (50 ng/ml), and recombinant human IL-2 (100 U/ml, PeproTech), followed by maintenance with IL-2 and IL-15 for 14-21 d. Cells were cultured in complete medium consisting of a 50:50 (v/v) mixture of RPMI-1640 and AIM-V (Invitrogen) supplemented with 10% (v/v) FCS (JRH Biosciences), penicillin (100 U/ml), streptomycin (100 μg/ml), Glutamax (2 mM), sodium pyruvate (1 mM), nonessential amino acids (0.1 mM), and HEPES buffer (15 mM), pH 7.2-7.5 (all from Invitrogen Life Technologies), plus 50 μM 2-mercaptoethanol (Sigma-Aldrich).
The inventors screened the panel of antibodies specific for BTN2A1, as described above, to identify those able to agonise BTN2A1. The inventors assessed the ability of anti-BTN2A1 antibodies to activate γδ T cells. The inventors assessed upregulation of CD25 on the surface of previously expanded γδ T cells following culturing the cells with 10 μg/ml anti-BTN2A1 antibodies or isotype control antibody (BM4) overnight.
The inventors additionally measured levels of interferon γ secreted by γδ T cells following culture in the presence of 10 μg/ml anti-BTN2A1 antibodies or isotype control antibody (BM4) overnight. Interferon γ secretion is another indicator of TCR-dependent activation.

[5] = system: Vγ9Vδ2 cells; assay: Flow cytometry: CD25 on Vγ9Vδ2 cells without phosphoantigen or APCs; format: cell-based, human; details: no addition of APCs or phosphoantigen; listed as 253
Text: Vγ9Vδ2 cells were stained for CD3, Vδ2, CD25 and live dead viability dye as previously described and analysed on a Canto flow cytometer (BD). Cells were gated on lymphocytes, single cells, live cells, CD3+ Vδ2+, and activation determined based on CD25 expression.

[6] = system: LM-MEL-62 and LM-MEL-75 melanoma cells; assay: Tumor killing/inhibition assay: γδ T cells with melanoma cells 2:1, MTS and CD25; format: cell-based, human; details: γδ T cells : melanoma cells 2:1, three days, antibody 10 ug/ml
Procedure: In the following experiments, γδ T cells were enriched by MACS using PE-Cy7-conjugated anti-γδTCR followed by anti-phycoerythrin-mediated magnetic bead purification (Miltenyi Biotec). After enrichment CD3^+ Vδ2^+γδ T cells were further purified by sorting using an Aria III (BD). […] LM-MEL-62 and LM-MEL-75 melanoma cells were plated out 1×10^4 per well in a 96 well flat-bottom plate In RPMI1640 media supplemented with 10% FBS and left to adhere overnight. […] All conditions were repeated in triplicate. Cells were incubated at 37 degrees and on day 3 Vd2+ cells were acquired by flow cytometry. Live cells were gated and activation determined by analysis of CD25 expression. Melanoma cell viability was determined by MTS assay. MTS reagent was added to RPMI media at a 1:5 ratio and 100 ul added per well. Cells were incubated at 37 degrees for 30 minutes and the plate was read on a Spectrostar nano plate reader at 490 nm. […] Cultures were performed with γδ T cells and melanoma cells (LM-MEL-75 or LM-MEL-62) in a 2:1 ratio.

[7] = γδT cells from patient 1 (melanoma patient)
[8] = γδT cells from a healthy donor, listed as 253
[9] = γδT cells from patient 1 (melanoma patient), listed as 253

Molecule: O=P(O)(O)C(O)(Cn1ccnc1)P(=O)(O)O [Zoledronate, zoledronate, reference compound]
GMCSF ([1]; γδT cells from a healthy donor): 254.29 pg/mL and 268.62 pg/mL
ICAM-1 ([1]; γδT cells from a healthy donor): 490.35 pg/mL and 504.11 pg/mL
IFNγ ([1]; γδT cells from a healthy donor): 58.38 pg/mL and 58.97 pg/mL
IL-4 ([1]; γδT cells from a healthy donor): 0.1 pg/mL
IL-8 ([1]; γδT cells from a healthy donor): 0.1 pg/mL
IL-13 ([1]; γδT cells from a healthy donor): 5.22 pg/mL and 4.43 pg/mL
IL-17A ([1]; γδT cells from a healthy donor): 0.1 pg/mL
MIP-1a ([1]; γδT cells from a healthy donor): 121.61 pg/mL and 125.27 pg/mL
MIP-1b ([1]; γδT cells from a healthy donor): 1280.91 pg/mL and 1334.19 pg/mL
TNFα ([1]; γδT cells from a healthy donor): 13.03 pg/mL and 13.02 pg/mL
sE-selectin ([1]; γδT cells from a healthy donor): 190.9 pg/mL
sP-Selectin ([1]; γδT cells from a healthy donor): 200.54 pg/mL and 313.85 pg/mL
GMCSF [1, 7]: 650.17 pg/mL and 619.93 pg/mL
ICAM-1 [1, 7]: 968.87 pg/mL and 888.51 pg/mL
IFNγ [1, 7]: 175.86 pg/mL and 171.42 pg/mL
IL-4 [1, 7]: 7.43 pg/mL and 7.68 pg/mL
IL-8 [1, 7]: 0.1 pg/mL
IL-13 [1, 7]: 235.43 pg/mL and 219.81 pg/mL
IL-17A [1, 7]: 3.5 pg/mL and 4.08 pg/mL
MIP-1a [1, 7]: 274.25 pg/mL and 273.85 pg/mL
MIP-1b [1, 7]: 5061.49 pg/mL and 4756.68 pg/mL
TNFα [1, 7]: 105.84 pg/mL and 102.44 pg/mL
sE-selectin [1, 7]: 259.01 pg/mL and 287.88 pg/mL
sP-Selectin [1, 7]: 1239.34 pg/mL and 1299.54 pg/mL

cells in the BTN2A1 tetramer+ gate (%) [2]: 100%
Molecule: Glycosylated BTN2A1 tet. (simple glycans) (from UniProt Q7KYR7) (ligand)

cells in the BTN2A1 tetramer+ gate (%) [2]: 100%
Molecule: BTN2A1 tetramer-PE (biotinylated BTN2A1 ectodomain tetramerized with streptavidin-PE) (ligand)

B1: clone 267: anti-BTN2A1 mAb, partial inhibitor; VH SEQ ID NO: 132, VL SEQ ID NO: 133 (antibody, V domains shown)
VH: EVQLLESGGGLVQPGGSLRLSCAASGFTFSTYVMYWVRQAPGKGLEWVSSISPSGGLTVYVDSVKGRFTISRDNSKNTLYLQMNSLRAEDTAVYYCARVGYSSSDIWGQGTMVTVSS
VL: QYELTQPHSVSESPGKTVTISCTRNGGSIASNAVQWYQQRPGSAPITVIYDDSQRPSGVPDRFSGSIDSSSNTASLTISGLTTEDEADYYCLSFDTTSQIFGGGTKLTVL
modifications: amino acid sequence of clone 267 VH; amino acid sequence of clone 267 VL
HMBPP-induced activation (CD25 upregulation, IFN-γ production) [3]: only a partial inhibitor

B2: antibody 253: agonistic anti-BTN2A1 antibody; VL SEQ ID NO: 148, VH SEQ ID NO: 152 (antibody, V domains shown)
VH: EVQLLESGGGLVQPGGSLRLSCAASGFTFSTYDMYWVRQAPGKGLEWVSYISPSGGLTTYADSVKGRFTISRDNSKNTLYLQMNSLRAEDTAVYYCARDHYDSSGRATNYYYYMDVWGKGTTVTVSS
VL: QSALTQPPSASGTPGQRVTLSCSGSSSNIGSNRVNWYQQLPGTAPKLLIDSNNQRPSGVPDRFSGSKSGTSASLAISGLRSEDEVFYYCAAWDDSVHGPVFGGGTMVTVL
modifications: amino acid sequence of the VH of antibody 253; amino acid sequence of the VL of antibody 253
level of secreted interferon γ [4]: increase the level of secreted interferon γ
percentage of γδ T cells expressing CD25 [4]: increase the percentage of γδ T cells expressing CD25
activation of Vγ9Vδ2 cells by CD25 upregulation [5]: activation of Vγ9Vδ2 independent of phosphoantigen; also recorded: can mimic phosphoantigen mediated activation to various degrees
CD25 level of expression on γδ T cells in co-culture [6]: upregulated
cytokine/chemokine secretion, in words ([1]; across both donors): weaker stimulus
cytokine/chemokine secretion, in words ([1]; cancer patient derived Vγ9Vδ2 cells, vs isotype (BM4)): No increase in any analyte
cytokine/chemokine secretion, in words ([1]; healthy donor derived Vγ9Vδ2 cells, vs isotype (BM4)): only small increases in the amounts of secreted GMCSF
ICAM-1 ([1]; γδT cells from a healthy donor): 0.1 pg/mL
IFNγ ([1]; γδT cells from a healthy donor): 0.1 pg/mL
IL-4 ([1]; γδT cells from a healthy donor): 0.1 pg/mL
IL-8 ([1]; γδT cells from a healthy donor): 0.1 pg/mL
IL-13 ([1]; γδT cells from a healthy donor): 0.1 pg/mL
IL-17A ([1]; γδT cells from a healthy donor): 0.1 pg/mL
TNFα ([1]; γδT cells from a healthy donor): 0.1 pg/mL
sE-selectin ([1]; γδT cells from a healthy donor): 0.1 pg/mL
sP-Selectin ([1]; γδT cells from a healthy donor): 0.1 pg/mL
MIP-1a [1, 8]: 16.32 pg/mL and 19.57 pg/mL
MIP-1b [1, 8]: 117.31 pg/mL and 143.67 pg/mL
IL-4 [1, 7]: 0.1 pg/mL
IL-8 [1, 7]: 0.1 pg/mL
IL-17A [1, 7]: 0.1 pg/mL
TNFα [1, 7]: 0.1 pg/mL
sP-Selectin [1, 7]: 0.1 pg/mL
GMCSF [1, 9]: 32.02 pg/mL and 33.23 pg/mL
ICAM-1 [1, 9]: 480.81 pg/mL and 405.75 pg/mL
IFNγ [1, 9]: 6.87 pg/mL and 3.45 pg/mL
IL-13 [1, 9]: 45.16 pg/mL and 36.92 pg/mL
MIP-1a [1, 9]: 133.36 pg/mL and 137.25 pg/mL
MIP-1b [1, 9]: 901.33 pg/mL and 941.65 pg/mL
sE-selectin [1, 9]: 142.97 pg/mL and 101.78 pg/mL

B3: clone 236: neutralizing anti-BTN2A1 mAb; VH SEQ ID NO: 116, VL SEQ ID NO: 117 (antibody, V domains shown)
VH: EVQLLESGGGLVQPGGSLRLSCAASGFTFSHYSMSWVRQAPGKGLEWVSGISSSGGFTPYADSVKGRFTISRDNSKNTLYLQMNSLRAEDTAVYYCTGGSGFDIWGQGTMVTVSS
VL: DIQMTQSPSTLSVSVGDRVTITCRASQTISSWLAWFQQKPGQAPKLLIYRASTLETGVPSRFSGSESGTTFTLTINGLQPDDLATYYCQQYATFPWTFGQGTKVEVK
modifications: amino acid sequence of clone 236 VH; amino acid sequence of clone 236 VL
HMBPP-induced activation (CD25 upregulation, IFN-γ production) [3]: failed to upregulate CD25 and produce IFN-γ

B4: clone 266: neutralizing anti-BTN2A1 mAb; VH SEQ ID NO: 124, VL SEQ ID NO: 125 (antibody, V domains shown)
VH: EVQLLESGGGLVQPGGSLRLSCAASGFTFSMYTMMWVRQAPGKGLEWVSGIGSSGGHTKYADSVKGRFTISRDNSKNTLYLQMNSLRAEDTAVYYCARYGHTFETWGQGTMVTVSS
VL: QYELTQPPSASGTPGQRVTISCSGSSSNIGSNYVYWYQQLPGTAPKLLIYRNNQRPSGVPDRFSGSKSGTSASLAISGLRSEDEADYYCAAWDDSLSGSYVFGTGTKVTVL
modifications: amino acid sequence of clone 266 VH; amino acid sequence of clone 266 VL
HMBPP-induced activation (CD25 upregulation, IFN-γ production) [3]: failed to upregulate CD25 and produce IFN-γ

B5: antibody 244: agonistic anti-BTN2A1 antibody; VL SEQ ID NO: 140, VH SEQ ID NO: 144 (antibody, V domains shown)
VH: EVQLLESGGGLVQPGGSLRLSCAASGFTFSEYSMSWVRQAPGKGLEWVSRIGPSGGGTVYADSVKGRFTISRDNSKNTLYLQMNSLRAEDTAMYYCARLGRGAVAELDYWGQGTLVTVSS
VL: QSVLTQPHSVSESPGKTVTISCTRSSGRIGSNYVHWYQHLPGRAPKLLIYGNSNRPSGVPDRFSGSKSGTSASLAITGLQADDEADYYCQTYDNNVWVFGGGTKLTVL
modifications: amino acid sequence of the VH of antibody 244; amino acid sequence of the VL of antibody 244
level of secreted interferon γ [4]: increase the level of secreted interferon γ
percentage of γδ T cells expressing CD25 [4]: increase the percentage of γδ T cells expressing CD25
